Usually stoichiometry N stands for a count of units in the complex or per binding partner.

Data set [1] deals with ΔVP1, Murine polyomavirus VP1 with the putative nuclear localization signal deleted (Murine polyomavirus) (UniProt P03090). In words: SEC-MALS. On the technique in general: In gel filtration, larger molecules generally elute earlier.
Data set [2] concerns the molecule itself. In words: SEC-MALS.

Regarding “ΔVP1, Murine polyomavirus VP1 with the putative nuclear localization signal deleted (from UniProt P03090 1-383) (natural protein)”, in data set [1], the stoichiometry N was found to be 72 pentamers.

B1: wild-type Murine polyomavirus VP1 (natural protein, UniProt P03090 1-383, looked up)
chain: MAPKRKSGVSKCETKCTKACPRPAPVPKLLIKGGMEVLDLVTGPDSVTEIEAFLNPRMGQPPTPESLTEGGQYYGWSRGINLATSDTWIPRNNTLPTWSMAKSSFPCLNEDLTCDTLQMWEAVSVKTEVVGSGSLLDVHGFNKTHRFSKHKGNSTPVEGSQYHVFAGGGEPLDLQGLVTDARTKYKEEGVVTIKTITKKDMVNKDQVLNPISKAKLDKDGMYPVEIWHPDPAKNENTRYFGNYTGGTTAPPVLQFTNTLTTVLLDENGVGPLCKGEGLYLSCVDIMGWRVTRNYVSSLEKGFPRYFKITLRKRWVKNPYPMASLISSLFNNMLPQVQGQPMEGENTQVEEVRVYDGTEPVPGDPDMTRYVDRFGKTKTVFPGN
Consider B1, for which the “stoichiometry N” value in data set [2] is ~72 pentamers.

These data come from publication PMC8689640 (ACS Synthetic Biology, 2021).
